Laboratory results: the supplement of paper PMC9170038

Tested on: MS2 coat protein
Assay: apparent KD of MS2 coat protein; designed switch direction (-1 OFF switch, 1 ON switch): -1; higher = weaker reporter binding
How it was run: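 RNA switches sharing common flanks were transcribed by stalled E. coli RNA polymerase on Illumina chips. A doubling series of SNAP-549-labelled MS2 coat protein, from 0.7 or 1.5 nM to 3 µM, was applied in Tris-HCl pH 7.5 buffer with KCl, MgCl2, BSA, DTT, tRNA and Tween-20. Each step lasted 0.8–1.5 h at the bottom of the series and 10–20 min at the top. Normalised cluster fluorescence was curve-fitted, giving apparent KD as the per-design median over clusters.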

[1] = Eterna round: R95, input ligand: FMN 200 uM
[2] = Eterna round: R95, input ligand: microRNA oligo, concentration not stated
[3] = Eterna round: R95, input ligand: none
[4] = input ligand: microRNA oligo, concentration not stated

Sequence | apparent KD of MS2 coat protein (input ligand: FMN 200 uM) | apparent KD of MS2 coat protein (input ligand: none) | apparent KD of MS2 coat protein [1] | apparent KD of MS2 coat protein [2] | apparent KD of MS2 coat protein [3] | apparent KD of MS2 coat protein [4]
UCCUGACAUGAGGAUCACCCAUGUGAGGAUAUGUGGAUCGAGUCAAAUCUCGUUCCGUGCAGAAGGCACAGGGC [EX1 A.21] (Eterna round: R97, puzzle: Exclusion 1) | 24.9 nM | 19 nM |  |  |  | 
GGAAAACAUGAGGAUCACCCAUGUGAGGAUAUGCGUACGUUGUCCGUAGGCGACGUGCGCAGAAGGCGCAAGAG [Mat - Mod of JL D89] (puzzle: Exclusion 1) |  |  | 57.4 nM | 48.5 nM | 58.1 nM | 
UUGUUAUGUGUAGGAUAUGCGUAUUAUUAUUAUGCAGAAGGACAUGAGGAUCACCCAUGUGUAUUGUUAUUAUAUAUUAUAUAU [Title] (Eterna round: R96, puzzle: Exclusion NG 1) | 32.1 nM | 21.9 nM |  |  |  | 16 nM
CCUAGUUGGUAAGGAUAUCCUACAUUGUUCUGACCCGGGCAUGCUACAUGAGGAUCACCCAUGUGGGAGAAGGUGCGUCAUCGC [Design 16] (Eterna round: R96, puzzle: Exclusion NG 2) | 80.4 nM | 83.4 nM |  |  |  | 55.9 nM
AAACUAGUAGAGGAUAUUCCAGGCAGUGUUUGAGAAGAAGGCUACACAUGAGGAUCACCCAUGUGGCCUGGUGG [Riedbi] (puzzle: Exclusion 6) |  |  |  | 12.8 nM |  | 
GUAUGUUAUGAGGAUAUCGGUGAACAUACACAUCGAGAAGGCAUGACAUGAGGAUCACCCAUGUCAAGGAUGUA [Exclusion 6 - B - 18:b] (puzzle: Exclusion 6) |  |  | 25.5 nM | 15.3 nM | 20.8 nM | 
CAAUAGAAAGGAUAUACAGUAGGCGUUGUGCUCGAGCACUCACAUGAGGAUCACCCAUGUAGAAGGUUCAGUUA [EX2 C.18] (Eterna round: R97, puzzle: Exclusion 2) | 27.9 nM | 17.7 nM |  |  |  | 
CUCCGGCGUGUAGGAUAUGGUUCCGUUUCGGUUCCAGAAGGACAUGAGGAUCACCCAUGUACCUGUCGUCGGUCGUCACCGGGC [salish99_ExNG1_r04_216] (Eterna round: R96, puzzle: Exclusion NG 1) | 12.4 nM | 16.4 nM |  |  |  | 13.2 nM
UGUGCGUAUGUGAGGAUAUGCUGGUCCUUGGAUCGGCAGAAGGCACAUGAGGAUCACCCAUGUGGUGUCGUUCC [salish99_Bmod_ex4_095] (puzzle: Brourd's mod of Exclusion 4) |  |  |  | 102 nM |  | 
GAUUGACAUGAGGAUCACCCAUGUGAGGAUAUCGGCCGGACCUUGUUAGCUUCCAGCGCGAGAAGGCGCAUAGG [Exclusion 1 V36] (puzzle: Exclusion 1) |  |  | 58.9 nM | 28.6 nM | 43.4 nM | 
AAAUCACAUGAGGAUCACCCAUGUCAGGAUAUCGACUGAACAGCUUCGGCUGUUCAGUCGAGAAGGGACAAUUA [Brourdxlusion 1 - Jieux - Exclusion 1] (Eterna round: R97, puzzle: Exclusion 1) | 133 nM | 43.2 nM |  |  |  | 
AGUACUAACACGUUAGUGUUAGUACAAUAAGCUUGUGAAACAUGAGGAUCACCCAUGUCCUCAUAAGCUCGUCUUAU [salish99_TOv2_r3_056] (Eterna round: R96, puzzle: Sensor v3, turn-off variant 2) | 16 nM | 17.9 nM |  |  |  | 466 nM
AUUUAGCAAGUUAGAUCCUACAUGAGGAUCACCCAUGUUGUUCGUCUUAUUUGAAGACAACACAAAAGUGUUGUCUU [Omei Mir OFFv1 B3] (Eterna round: R97, puzzle: Sensor, turn-off variant 1) | 107 nM | 100 nM |  |  |  | 
GGGAUGUCAGGAUAUACAUGAGGAUCACCCAUGUAGAGAUAAGAUAGGGAAAGAGUAGGUAGAAGGGACGAGAG [JR_Exclu3_Sub044] (puzzle: Exclusion 3) |  |  | 22 nM | 19.9 nM | 24.5 nM | 
AGCUGUGGCCGAGGAUAUCCAACUUCAAAUACCGACGUAUAGUCGGACAUGAGGAUCACCCAUGUGGAGAAGGCGGUCUCAGCA [Eli eng2 - 038] (Eterna round: R96, puzzle: Exclusion NG 2) | 24.2 nM | 15.6 nM |  |  |  | 12.5 nM
GAUGAGGUAGGAUAUACGAGAAGAUAGGGUAGAUAUAUAACACAUGAGGAUCACCCAUGUAGAAGGACCAGUAG [Mat - Exclusion 2 - Mod of my Tesla design - D71] (puzzle: Exclusion 2) |  |  | 65.1 nM | 36.4 nM | 31.7 nM | 
UUAUAUAGGUAGGAUAUCGAUUUUAAUUAAUAUCGAGAAGGGUCAACAUGAGGAUCACCCAUGUCAGCAUGUAU [LRO-Excl6-04-Rocketman] (Eterna round: R97, puzzle: Exclusion 6) | 60 nM | 55.1 nM |  |  |  | 

Sequence | apparent KD of MS2 coat protein (input ligand: FMN 200 uM) | apparent KD of MS2 coat protein (input ligand: none) | apparent KD of MS2 coat protein [1] | apparent KD of MS2 coat protein [2] | apparent KD of MS2 coat protein [3] | apparent KD of MS2 coat protein [4]
ACUUGCUAUUUGCUCGUCUUAUUUUUGUUUAUUUACUAUACAUGAGGAUCACCCAUGUUAUAUUUAAGGGUGUGAUA [JR_SV3TOV2_Sub074] (puzzle: Sensor v3, turn-off variant 2) |  |  | 270 nM | 334 nM | 259 nM | 
ACAUGAGGAUCACCCAUGUCUGGCUGGUCCGUCUCGGCUGUCGAGGAUAUAGCUCGGUGUCCGCGCUAGAAGGCGGGAGCUGGC [Aenatbe mod 81] (Eterna round: R96, puzzle: Exclusion NG 3) | 135 nM | 81 nM |  |  |  | 52.2 nM
GCAGGAUAAGUGAGGAUAUACCUAUGGAUACAUAGGUAGAAGGCACAUGAGGAUCACCCAUGUUCCUAACCUGC [Fiskers BMX 4 - 68] (puzzle: Brourd's mod of Exclusion 4) |  |  | 70.9 nM | 12.8 nM | 15.1 nM | 
CUGAGCAGACGGAGAUCCAACAUGAGGAUCACCCAUGUCUCAAAAGCUUAUUGCUCGUCUUAUCCUCCUCUGUUCAC [Mat - Sensor, turn-off var - Eli Mod - D54] (Eterna round: R97, puzzle: Sensor, turn-off variant 1) | 26.9 nM | 26.7 nM |  |  |  | 
UCCUCACAUGAGGAUCACCCAUGUGAGGAUAUCAUGCUUCGUAGUAAACUACGAAGUGUGAGAAGGCGCAUGGC [Omei Ex1 D16] (Eterna round: R97, puzzle: Exclusion 1) | 20.4 nM | 16.2 nM |  |  |  | 
GGUUUUCUUUUCCUUUCUUACAUGAGGAUCACCCAUGUUUCUUGUCGUGCUCGCGUUGCUCGUCUGUCUGUCUGUUG [salish99_TOv1_r3_076(!)] (puzzle: Sensor v3, turn-off variant 1) |  |  | 45.9 nM | 35.7 nM | 56.9 nM | 
ACAGUGCGAGGAUAUACAUGAGGAUCACCCAUGUGAGAGAAAUAAGUGAGGAAGAAAAGUAGAAGGCGCGUUGA [Mat - Exclusion 3 - Mod of Salish D70] (puzzle: Exclusion 3) |  |  |  | 45.8 nM |  | 
AAUAAUAAAGUGAGGAUAUCUAGAGCCUCGGCUCUAGAGAAGGCACAUGAGGAUCACCCAUGUCUCAAUAAUAA [BmEx4/1-C5] (Eterna round: R97, puzzle: Brourd's mod of Exclusion 4) | 60.5 nM | 21.3 nM |  |  |  | 
CUGCUCCGUGUAGGAUAUGCAUACAACCAAUAUGCAGAAGGACAUGAGGAUCACCCAUGUAUGUUAUUAUCACGUGAAGCGUCC [Design 20] (Eterna round: R96, puzzle: Exclusion NG 1) |  |  |  |  |  | 16.8 nM
UAGAAAGGUAAGGAUAUCCUUGAGAAAGAAAGAGGAGAAGGUACCACAUGAGGAUCACCCAUGUGGCUCUCAAA [jl-ex6-4.57 Nando mod] (Eterna round: R97, puzzle: Exclusion 6) | 15.2 nM | 13.7 nM |  |  |  | 
UCUGGUCGAGGAUAUACAUGAGGAUCACCCAUGUGGUCACGUGACUUCGGUCACGAAUGUAGAAGGCGACCAGA [E3/3-A6] (Eterna round: R97, puzzle: Exclusion 3) | 26.7 nM | 51 nM |  |  |  | 
AGGAAGCAAGGAUAUACGAGGAGAAGGUGUCCAUCUAAAUGACAUGAGGAUCACCCAUGUAGAAGGUGCGAGAA [JR_Exclu2_Sub050] (puzzle: Exclusion 2) |  |  | 112 nM | 47.4 nM | 34.5 nM | 
AGUAACCGUCACGAAAGUGAUGGUUACACAAGAAAUGAAACAUGAGGAUCACCCAUGUCCUCAUUUGCUCGUCUUAU [Sensor 3 - 38] (puzzle: Sensor v3, turn-off variant 2) |  |  | 176 nM | 288 nM | 259 nM | 
AAUAAAAGCGAGGAUAUCGUAUCGGAAACGAUACGAGAAGGCGUAACAUGAGGAUCACCCAUGUGUCCUCAAUA [Mat - Exclusion 6 - Eli Mod - D8] (Eterna round: R97, puzzle: Exclusion 6) | 1260 nM | 130 nM |  |  |  | 
UUAAAUCAUGUAGGAUAUGCGUGGCGAAGCUAUGCAGAAGGACAUGAGGAUCACCCAUGUGCUGCGGUCUGCGUACAGAUCGCA [JL ENG1 1.06] (Eterna round: R96, puzzle: Exclusion NG 1) | 87.6 nM | 307 nM |  |  |  | 259 nM
GGCCGAGAACAGCUCCACGCUACCCUCGGCCGCUCAUUUACAUGAGGAUCACCCAUGUUUUUUGCUUGUCUUGUUUC [Xeisrarabi] (puzzle: Sensor v3, turn-off variant 2) |  |  | 22.1 nM | 94.1 nM | 24.1 nM | 
